Among the data in publication PMC3438196 are MAPPIT signal, % of WT values, retold here.

This experiment concerns the target Apobec3G R55A MAPPIT bait (human) (UniProt Q9HC16). The experiment is described as follows: two-hybrid; MAPPIT (mammalian two-hybrid) in intact HEK293T cells: bait on the EpoR/leptin receptor chimera, prey on gp130 fragments, pXP2d2-rPAP1-luciferase reporter; fold induction of luciferase, Epo-stimulated (10 ng/ml hEpo) over unstimulated; 6-well or 96-well calcium phosphate transfection. In general terms: A reporter such as luciferase makes a cellular process visible.

Sequence of Apobec3G R55A MAPPIT bait (human) (Q9HC16 whole entry R55A, the tested form may be a part): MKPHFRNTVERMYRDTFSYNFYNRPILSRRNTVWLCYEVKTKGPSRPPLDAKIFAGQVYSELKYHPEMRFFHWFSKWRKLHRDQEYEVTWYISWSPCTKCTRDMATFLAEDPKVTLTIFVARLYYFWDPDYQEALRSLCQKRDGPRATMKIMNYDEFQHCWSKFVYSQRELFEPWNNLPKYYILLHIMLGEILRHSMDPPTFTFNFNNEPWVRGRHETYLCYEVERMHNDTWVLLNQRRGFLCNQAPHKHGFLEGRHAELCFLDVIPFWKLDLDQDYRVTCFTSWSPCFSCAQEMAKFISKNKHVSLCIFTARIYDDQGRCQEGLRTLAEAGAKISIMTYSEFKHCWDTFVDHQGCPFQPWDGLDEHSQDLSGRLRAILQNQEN

Consider “Gagpol MAPPIT prey (pMG2-Gagpol) (natural protein)”, for which the MAPPIT signal, % of WT is 64 % of WT.
